# B1: IF1-1-60 (peptide)
# peptide: GSDQSENVDRGAGSIREAGGAFGKREQAEEERYFRAQSREQLAALKKHHEEEIVHHKKEI
# Target: Human F1Fo-ATPase purified from HepG2 cells (human)
# Assay: cell-based or functional assay
row,Binder,"F1-ATPase activity (NADH-coupled assay, purified F1Fo-ATPase, 1 µM peptide), inhibition as compared to control [%]"
1,RGAGSIREAGGAFGKREQAEEERYFRAQSREQLAALKKHHEEEIVHH [IF1-10-56],88
2,RGAGSIREAGGAFGKREQAEEERYFRAQSREQLAALKK [IF1-10-47],75
3,B1,94
